First the molecules themselves.
B1: Fab of antibody 222 (Fab, V domains shown)
VH: EVQLVESGGGLIQPGGSLRLSCAASGLTVSSNYMSWVRQAPGKGLEWVSVIYSGGSTFYADSVKGRFTISRDNSKNTLYLQMNSLGAEDTAVYYCARGEGSPGNWFDPWGQGTLVTVSS
VL: DVVMTQSPGTLSLSPGERATLSCRASQSVPSSYLAWYQQKPGQAPRLLIYGASTRATGIPDRFSGSGSGTDFTLTISRLEPEDFAVYYCQHYDTSPRFGGGTKVDIK
B2: Fab of antibody 88 (Fab, V domains shown)
VH: QLQLQESGPGLVKPSQTLSLTCTVSGGSISSGSYNWTWIRQPAGKGLEWIGRIYNSGSTNYNPSLKSRVTISVDTSKNQLSLKVRSVTAADTAVYYCARHCSGGTCYPKYYYGMDVWGQGTTVTVSS
VL: QSALTQPPSVSEAPRQRVTISCSGSSSNIGNNAVNWYQQFPGKAPKLLIYYDDLLPSGVSDRFSGSKSGTSASLAISGVQSEDEADYYCAAWDDSLNVVVFGGGTKLTVL
notes: also called 88 Fab; Fab 88
B3: Fab of antibody 40 (Fab, V domains shown)
VH: QVQLVESGGGLVQPGGSLRLSCAVSGFTVSRNYMSWVRQAPGKGLEWVSLIYSGGSTFYADSVKGRFTISRDNSKNTLYLQMNSLRAEDTAVYYCARDLFHRSGYHDYWGQGTLVTVSS
VL: not shown
notes: also called 40 Fab; Fab 40
B4: Fab of antibody 281 (Fab, V domains shown)
VH: QVQLVESGGGLVQPGGSLRLSCAASGFPFSIYWMSWVRQAPGKGLEWVANIKQDGSEKYYVDSVKGRFTISRDNAKNSLYLHMNSLRGEDTAVYYCASRYYDFRPEAWFDYWGQGTLVTVSS
VL: not shown
B5: Fab of antibody 158 (Fab, V domains shown)
VH: EVQLLESGGDLIQPGGSLRLSCAASGVTVSSNYMSWVRQAPGKGLEWVSIIYPGGSTFYADSVKGRFTISRDNSKNTLYLQMHSLRAEDTAVYYCARDLGSGDMDVWGKGTTVTVSS
VL: DIVMTQSPSFLSASVGDRVTITCRASQGISSYLAWYQQKPGKAPKLLIQAASTLQSGVPSRFSGSGSGTEFTLTISSLQPEDFATYYCQQLNSYRYTFGQGTKVEIK
notes: also called 158 Fab; Fab 158
B6: Fab of antibody 316 (Fab, V domains shown)
VH: not shown
VL: QAVLTQPPSASGSPGQSVTISCTGTSSDVGGYNYVSWYQQHPGKAPKLMIYEVSKRPSGVPDRFSGSKSGNTASLTVSGLQAEDEADYYCSSYAGSNHWVFGGGTKLTVL
notes: also called 316 Fab; Fab 316
B7: Fab of antibody 398 (Fab, V domains shown)
VH: QVQLVESGGGLVQPGGSLRLSCAASGFTVSSNYMTWVRQAPGKGLEWVSVIYSGGSTYYADSVKGRFTISRDNSKNTLYLQMNSLRADDTAVYYCARDSTADYDFWSGYYVGAFHIWGQGTMVTVSS
VL: B6 VL with A2T, P8A, A10V, V18I, S54T, H98N
B8: Fab of antibody 269 (Fab, V domains shown)
VH: QVQLVESGGGLIQPGGSLRLSCAASGLTVNRNYMSWIRQAPGKGLEWVSVIYSGGSTFYADSVKGRFTISRDNSKNTLSLQMNSLRAEDTAIYYCARDFYEGSFDIWGQGTMVTVSS
VL: AIQLTQSPSFLSASIGDRVTITCRASQGISSYLAWYQQKPGKAPKLLIYAASTLQSGVPSRFSGSGSGTEFTLTISSLQPEDFASYYCQQLNSYPAPVFGPGTKVDIK
notes: also called 269 Fab; COVOX-269
B9: Fab of antibody 58 (Fab, V domains shown)
VH: QVQLVESGGGLVQPGRSLRLSCAASGFTFDDYAMHWVRQPPGKGLEWVSGVSWNSGTIGYADSVKGRFIISRDNAKNSLYLQMNSLKAEDTALYYCAREVGGTFGVLISREGGLDYWGQGTLVTVSS
VL: SYELTQPPSVSVAPGQTARITCGGNTIGSKSVHWYQQRPGQAPVLVVYDDSDRPSGIPERFSGSNSGNTATLTISRVEAGDEADYYCQVWDSSSDRVVFGGGTKLTVL
B10: Fab of antibody 318 (Fab, V domains shown)
VH: QVQLVQSGPEVKKPGTSVKVSCKASGFTLTSSAMQWVRQARGQRLEWIGWIVVGSGNTNYAQKFQERVTITRDMSTSTAYMELSSLRSEDTAVYYCAAGRGYNSDFDYWGQGTLVTVSS
VL: AIRMTQSPGTLSLSPGERATLSCRASQSVSSSYLAWYQQRPGQAPRLLIYGTSSRATGIPDRFSGSGSGTDFTLTISRLEPEDFAVYYCQQYGYSVYTFGQGTKVDIK
B11: Fab of antibody 175 (Fab, V domains shown)
VH: EVQLVESGGGLIQPGGSLRLSCAASGLTVSRNYMSWVRQAPGKGLEWVSLIYSGGSTYYADSVKGRFTISRDNSKNTLYLQMNSLRAEDTAVYYCARDLRGEVWGQGTMVTVSS
VL: not shown
B12: Fab of chimeric antibody 253H165L (Fab, V domains shown)
VH: not shown
VL: DIVMTQSPGTLSLSPGERATLSCRASQSVRSSYLAWYQQKPGQAPRLLIYGASRRGTGIPDRFSGSGSGTDFTLTISRLEPEDFAVYYCQQYGSSPWTFGQGTKVEIK
notes: also called 253H165L Fab
B13: chimeric antibody 253H165L, full-length IgG (antibody, V domains shown)
VH: not shown
VL: B12 VL
notes: also called 253H165L IgG
B14: antibody 278 (antibody, V domains shown)
VH: QVQLVQSGAEVKKPGASVKVSCKASGYIFIRYGISWVRQAPGQGLEWMGWISANNGYTNYAQKLQGRVTMTTDTSTSTAYMELRSLRSDDTAVYYCARDGGILTGYLDYFDHWGQGTLVTVSS
VL: DIQMTQSPSSLSASVGDRLTITCRASQSIASYLNWYQQKPGKAPKLLIYAASSLQSGVPSRFSGSGSGTDFTLTISSLQPEDFATYHCQQSYSTLGITFGPGTKVDIK
notes: also called mAb 278
B15: antibody 281 (antibody, V domains shown)
VH: B4 VH
VL: not shown
B16: antibody 316 (antibody, V domains shown)
VH: not shown
VL: B6 VL
B17: antibody 398 (antibody, V domains shown)
VH: B7 VH
VL: B6 VL with A2T, P8A, A10V, V18I, S54T, H98N
notes: also called mAb 398
B18: antibody 318 (antibody, V domains shown)
VH: B10 VH
VL: B10 VL
notes: also called mAb 318
B19: Fab of antibody 159 (Fab, V domains shown)
VH: EVQLVESGGGVVQPGRSLRLSCAASGFTFSSYGMHWVRQAPGKGLEWVALISYDGGNRYYADSVKGRFTISRDNSKNTLYLQMNRLRAEDTAMYYCAKDRDDGWDWYYFMDVWGKGTTVTVSS
VL: DIQLTQSPGTLSLSPGERATLSCRASQSISGNYLAWYQHKPGQAPRLLIYGASTRATGIPDRFSGSGSGTDFTLTISRLEPEDFAVYYCQQYGSSYTFGQGTKVEIK

As a reminder, the Kd is the constant that tells how readily two partners part at equilibrium. The low end stands for a tighter complex, the high end for a looser complex.

Changes are numbered by the printed parent chain.

One assay concerns the target T1, SARS-CoV-2 receptor binding domain with N501Y (SARS-CoV-2, UniProt P0DTC2 330-532).
T1 construct: range 330-532; also called RBD-N501Y; RBD N501Y
Put plainly: BLI, RBD immobilised on AR2G biosensor, 1:1 fit. (In general: In BLI a coated tip is dipped into the sample, and binding shifts an interference pattern.)
Molecule B1 gave a Kd of 0.39 nM. In other words, the sub-nanomolar range.

B2 gave a Kd of 0.65 nM. This Kd lies about 1.7-fold higher than the previous one.

The molecule B3 showed a dissociation constant Kd of 0.97 nM.

B4 showed a Kd of 4.05 nM.

As for B5, the Kd was 1.57 nM.

B6 showed a dissociation constant Kd of 2.81 nM.

B7 returned a Kd of 1.18 nM.

B8 yielded a dissociation constant (Kd) of 45.4 nM.

Molecule B9 displayed an equilibrium dissociation constant (Kd) of 0.55 nM.

As to B10, the Kd stood at 1.99 nM.

The molecule B11 displayed a Kd of 2.54 nM.

Another assay addresses T2, SARS-CoV-2 spike protein on authentic virus, strain SARS-CoV-2/human/AUS/VIC01/2020 (Victoria) (SARS-CoV-2, UniProt P0DTC2 14-1273).
T2 construct: whole, on cells
Put plainly: calculated from whole-virus ELISA binding and FRNT50.
As to B2, the “% Occupancy” value is 85.2%.

Consider B12, for which the “% Occupancy” value was 51.3%.

As for B13, the “% Occupancy” value is 24.5%.

Turning to B3, the “% Occupancy” value was 97.4%.

B5: the “% Occupancy” value was 52.7%.

Consider B6, for which the “% Occupancy” value is 74%.

Another assay concerns the target T2, SARS-CoV-2 spike protein on authentic …. Put plainly: cell-based or functional assay.
Turning to B2, the “Neutralisation IC50” value came to 6.95 nM.

B12: the “Neutralisation IC50” value was determined as 5.22 nM.

With B13, the “Neutralisation IC50” value came out at 0.03 nM.

For B3, the “Neutralisation IC50” value was determined as 45.7 nM.

For the molecule B5, the “Neutralisation IC50” value was determined as 4.12 nM.

B6: the “Neutralisation IC50” value was determined as 27.6 nM.

A further assay has as its target spike protein of SARS-CoV-2 strain B.1.1.7 (SARS-CoV-2, UniProt P0DTC2 14-1273). Put plainly: cell-based or functional assay.
As to B14, the “IC50 (FRNT neutralisation)” value came to 0.307 µg/mL.

B15: the “IC50 (FRNT neutralisation)” value was 0.012 µg/mL.

B16: the “IC50 (FRNT neutralisation)” value was 0.024 µg/mL.

With B17, the “IC50 (FRNT neutralisation)” value was found to be 0.18 µg/mL.

For B18, the “IC50 (FRNT neutralisation)” value is 0.185 µg/mL.

The next assay deals with spike protein of SARS-CoV-2 strain B.1.351 (SARS-CoV-2, UniProt P0DTC2 14-1273). Put plainly: cell-based or functional assay.
For the molecule B14, the “IC50 (FRNT neutralisation)” value was found to be 0.16 µg/mL.

As to B15, the “IC50 (FRNT neutralisation)” value was > 10 µg/mL.

On to B16, for which the “IC50 (FRNT neutralisation)” value was > 10 µg/mL.

With B17, the “IC50 (FRNT neutralisation)” value is > 10 µg/mL.

In the case of B18, the “IC50 (FRNT neutralisation)” value turned out to be 0.019 µg/mL.

The target of the next assay is spike protein of SARS-CoV-2 strain P.1 (SARS-CoV-2, UniProt P0DTC2 14-1273). In words: cell-based or functional assay.
Take B14: the “IC50 (FRNT neutralisation)” value was found to be 0.245 µg/mL.

Regarding B15, the “IC50 (FRNT neutralisation)” value is > 10 µg/mL.

For the molecule B16, the “IC50 (FRNT neutralisation)” value is > 10 µg/mL.

For B17, the “IC50 (FRNT neutralisation)” value is > 10 µg/mL.

For B18, the “IC50 (FRNT neutralisation)” value was determined as 0.083 µg/mL.

Another assay addresses spike protein of SARS-CoV-2 strain Victoria (SARS-CoV-2/human/AUS/VIC01/2020) (SARS-CoV-2, UniProt P0DTC2 14-1273). In words: cell-based or functional assay.
On to B14, for which the “IC50 (FRNT neutralisation)” value is 0.014 µg/mL.

On to B15, for which the “IC50 (FRNT neutralisation)” value was 0.005 µg/mL.

Take B16: the “IC50 (FRNT neutralisation)” value is 0.018 µg/mL.

For the molecule B17, the “IC50 (FRNT neutralisation)” value is 0.091 µg/mL.

With B18, the “IC50 (FRNT neutralisation)” value was determined as 0.029 µg/mL.

In a further assay the target is T2, SARS-CoV-2 spike protein on authentic …. In words: whole-virus capture ELISA, half-maximal binding. For orientation: An ELISA detects its analyte on a solid surface through an enzyme-linked reagent.
As to B19, the dissociation constant Kd was determined as 0.29 nM.

Molecule B2 returned a Kd of 1.21 nM. This Kd is about 4.2-fold higher than that of the molecule before.

B12: the affinity, expressed as Kd, was 5.02 nM.

In the case of B13, binding was put at a Kd of 0.09 nM.

As to B3, binding was characterised by a dissociation constant (Kd) of 1.23 nM.

B5 showed an equilibrium dissociation constant (Kd) of 3.73 nM.

B6: binding was characterised by a dissociation constant (Kd) of 8.76 nM.

The values above are taken from patent publication US20240043507A1 (RQ BIOTECHNOLOGY, published 2024).
